Patent US20240075137A1
pKd: −log10 of the molar value.

Experiments:
[1] = biological target: mPVR (recombinant protein) (mouse); test: SPR/ELISA with recombinant proteins
mPVRL2 HIS (mouse) [2] = biological target: mPVRL2 HIS (mouse) (UniProt P32507); test: ELISA: soluble receptor Fc titrated on immobilized mPVRL2 HIS
mPVRL2 HIS (mouse) [3] = biological target: mPVRL2 HIS (mouse) (UniProt P32507); test: ELISA: mPVRIG-mFc titrated on mPVRL2
[4] = biological target: human TIGIT on cells (human) (UniProt Q495A1); test: FACS titration on Expi293 human TIGIT over-expressing cells (gMFI OE:Parental); ± 95% CI; 'Fit: Fair/Good'
[5] = biological target: human TIGIT on cells (human) (UniProt Q495A1); test: FACS, Expi293 human TIGIT over-expressing cells
[6] = biological target: human TIGIT on cells (human) (UniProt Q495A1); test: FACS blocking: Expi293 human TIGIT cells pre-incubated with mAb, then human PVR-m2aFc; lower gMFI = more blocking

human TIGIT on cells (human), sequence (Q495A1 22-141): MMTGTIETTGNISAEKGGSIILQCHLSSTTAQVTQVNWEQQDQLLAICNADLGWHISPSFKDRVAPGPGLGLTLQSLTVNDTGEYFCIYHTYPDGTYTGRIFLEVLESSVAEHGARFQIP
mPVRL2 HIS (mouse), sequence (P32507 32-351 limits assumed): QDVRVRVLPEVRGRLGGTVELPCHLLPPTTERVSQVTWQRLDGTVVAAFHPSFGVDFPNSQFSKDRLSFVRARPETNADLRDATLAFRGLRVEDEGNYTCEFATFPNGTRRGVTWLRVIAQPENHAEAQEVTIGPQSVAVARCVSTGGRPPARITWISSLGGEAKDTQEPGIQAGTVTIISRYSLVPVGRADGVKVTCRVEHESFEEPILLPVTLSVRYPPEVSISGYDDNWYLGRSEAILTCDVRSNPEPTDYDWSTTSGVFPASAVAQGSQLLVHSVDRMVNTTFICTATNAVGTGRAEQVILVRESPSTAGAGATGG

mouse PVRIG-Fc fusion protein
fold lower affinity than the interaction with mPVRL2 [1]: 10 fold | EC50 (read off the curve) (mPVRL2 HIS (mouse) [2]): 2 nM | EC50 (read off the curve) (mPVRL2 HIS (mouse) [3]): 2 nM

human PVR-m2aFc (Compugen) (from UniProt P15151 21-343) (Fc fusion)
pKd [4]: 8.07 | EC90 [5]: 158 nM

Synagis hIgG4 (antibody)
gMFI of bound PVR-m2aFc at 266 pM mAb [6]: 959 | gMFI of bound PVR-m2aFc at 1.3 nM mAb [6]: 964 | gMFI of bound PVR-m2aFc at 6.7 nM mAb [6]: 828
